Where two headings read alike, the source gives them in different places.
Legend:
hVEGF-A [1] = target: T1, hVEGF-A (human, UniProt P15692-4 27-191, limits assumed); assay: cell-based or functional assay
hVEGF-A Q89A = target: T2, hVEGF-A Q89A (human, UniProt P15692-4 34-135, Q89A); assay: SPR
T2 construct: position probably counted on the mature protein
T2 sequence (looked up): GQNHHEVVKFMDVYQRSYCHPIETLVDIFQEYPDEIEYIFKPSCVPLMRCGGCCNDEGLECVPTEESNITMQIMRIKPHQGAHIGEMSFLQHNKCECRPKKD
Procedure: (§1) Depending on the format of the assay either a streptavidin sensor (SA) or a dextran-coated (CM5) sensor was utilized as described below.
(§2) Reaction was then quenched by addition of 10 molar excess of Glycine pH 8.0 and the sample was buffer exchanged into PBS using an Amicon 0.5 mL 3000 MWCO ultra-centrifugal filters (EMD Millipore). The biotinylation state of the protein was verified by LC-MS analysis. Biotinylated VEGF-A was then captured on the surface until a resonance unit (RU) signal of about ˜400. For immobilization of VEGF-A on CM5 sensor, the surface was first activated with a mixture of N-ethyl-N′-(3-dimethylaminopropyl)carbodiimide hydrochloride and N-hydroxysuccinimide (EDC/NHS) according to the supplier instructions. VEGF-A was then diluted into coupling buffer (0.1 M Acetate Buffer, pH 5.0) and injected until the signal reached about ˜400 RU followed by a wash with 1 M ethanolamine pH 8.0 to quench remaining activated sites.

hVEGF-A [2] = target: T1, hVEGF-A; assay: SPR
Procedure: as §1, §2

hVEGF-A Y21A = target: T3, hVEGF-A Y21A (human, UniProt P15692-4 34-135, Y21A); assay: SPR
T3 construct: position probably counted on the mature protein
T3 sequence (looked up): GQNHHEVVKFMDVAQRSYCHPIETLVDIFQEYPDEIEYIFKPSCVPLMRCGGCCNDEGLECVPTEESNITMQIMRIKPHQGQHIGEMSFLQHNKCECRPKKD
Procedure: as §1, §2

hVEGF-A K48A = target: T4, hVEGF-A K48A (human, UniProt P15692-4 34-135, K48A); assay: SPR
T4 construct: position probably counted on the mature protein
T4 sequence (looked up): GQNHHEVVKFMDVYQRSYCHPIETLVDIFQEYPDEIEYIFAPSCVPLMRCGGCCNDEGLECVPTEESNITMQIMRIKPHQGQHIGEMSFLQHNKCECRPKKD
Procedure: as §1, §2

hVEGF-A (8-109) [3] = target: T5, hVEGF-A (8-109) (human, UniProt P15692 214-315); assay: spot phage ELISA
T5 sequence (looked up): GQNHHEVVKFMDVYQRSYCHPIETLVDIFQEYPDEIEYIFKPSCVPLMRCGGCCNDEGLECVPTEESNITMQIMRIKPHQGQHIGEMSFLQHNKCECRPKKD
Summary of the method: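 Phage clones from four selection rounds were grown overnight at 37 °C with M13-KO7 helper phage. Bound phage was detected with anti-M13-HRP and TMB, with binding to BSA alone run in parallel as background.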

hVEGF-A (8-109) [4] = target: T5, hVEGF-A (8-109); assay: competition ELISA: VEGF-A (8-109) coated, constant Flt-1 receptor, peptide titrated; blocked ligand: Flt-1
Procedure: (§3) Binding specificity of each peptide was established by competition ELISA. […] After blocking with block buffer (PBS with 0.5% BSA and 0.05% TWEEN®20) for 2 hours at room temperature, the receptor-Fc fusions or biotinylated receptors were serially diluted using assay buffer (PBS with 0.5% BSA and 0.05% TWEEN®20) and incubated for 1 hour at room temperature. […] Competition ELISA was conducted in an identical fashion as described above except after blocking, a mixture of serially diluted peptide containing a constant concentration of receptor-Fc fusion or biotinylated receptor (concentration of receptor was set to EC₆₀) was added and incubated for 1 hour. All recombinant human proteins and antibodies were purchased from R &D Systems (Minneapolis, Minn.).

hVEGF-A (8-109) [5] = target: T5, hVEGF-A (8-109); assay: competition ELISA: VEGF-A (8-109) coated, constant KDR receptor, peptide titrated; blocked ligand: KDR
Procedure: as §3

hVEGF-A (8-109) [6] = target: T5, hVEGF-A (8-109); assay: competition ELISA: VEGF-A (8-109) coated, constant Flt-1 receptor, peptide titrated; blocked ligand: Flt-1; remark: listed apart in the source
Procedure: as §3

VEGF-B = target: T6, VEGF-B (human, UniProt P49765-2 22-188, limits assumed); assay: competition ELISA: VEGF-B coated, constant Flt-1 receptor, peptide titrated
T6 sequence (looked up): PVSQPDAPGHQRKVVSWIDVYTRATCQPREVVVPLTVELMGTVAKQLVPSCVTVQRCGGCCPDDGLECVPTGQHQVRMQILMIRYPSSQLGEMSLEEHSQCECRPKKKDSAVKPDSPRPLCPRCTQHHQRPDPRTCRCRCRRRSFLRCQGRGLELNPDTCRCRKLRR

hVEGF-A F17A/M81A = target: T7, hVEGF-A F17A/M81A (human, UniProt P15692-4 34-135, F17A; M81A); assay: site-directed mutants, SPR; no numbers printed for this mutant
T7 construct: positions probably counted on the mature protein
T7 sequence (looked up): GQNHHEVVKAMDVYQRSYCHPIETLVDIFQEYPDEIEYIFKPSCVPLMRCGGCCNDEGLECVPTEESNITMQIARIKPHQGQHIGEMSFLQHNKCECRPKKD

human VEGF-A 165 [7] = target: T8, human VEGF-A 165 (human, UniProt P15692-4 27-191); assay: competition ELISA: VEGF-A 165 coated, constant KDR receptor, peptide titrated; blocked ligand: KDR
Procedure: as §3

human VEGF-A 165 [8] = target: T8, human VEGF-A 165; assay: as above; remark: listed apart in the source
Procedure: as §3
Target sequence in this assay (P15692 other isoform, or with tags, fused parts or gaps limits assumed): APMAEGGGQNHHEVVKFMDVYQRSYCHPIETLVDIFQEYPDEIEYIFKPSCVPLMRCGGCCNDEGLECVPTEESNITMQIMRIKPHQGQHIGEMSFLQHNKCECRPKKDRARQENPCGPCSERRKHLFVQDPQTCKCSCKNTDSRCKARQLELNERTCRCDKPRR

VEGF-D = target: T9, VEGF-D (human, UniProt O43915 93-201, limits assumed); assay: competition ELISA: VEGF-D coated, constant Flt-4 receptor, peptide titrated
T9 sequence (looked up): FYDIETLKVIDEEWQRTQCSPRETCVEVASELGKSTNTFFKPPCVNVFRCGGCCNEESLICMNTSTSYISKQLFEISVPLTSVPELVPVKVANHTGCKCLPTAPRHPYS

B1: VEGF_CKP9.54.90 (designed binder)
chain: GCNIMLPFWGCGRDFECLAGCVCQYYQSCG
Cellular IC50 (hVEGF-A [1]): 1.35 nM
FOLD [..] [..] TO VARIANT 9.54.90 (hVEGF-A [1]): 1 fold
Kd (hVEGF-A Q89A): 8.8 nM
Kd (hVEGF-A [2]): 0.37 nM
Kd (hVEGF-A Y21A): 3.5 nM
Kd (hVEGF-A K48A): 0.19 nM
ELISA (hVEGF-A (8-109) [3]): 2.3
S/N vs BSA (hVEGF-A (8-109) [3]): 29.5
IC50 (read off the curve) (hVEGF-A (8-109) [4]): ~70 nM
IC50 (read off the curve) (hVEGF-A (8-109) [5]): ~20 nM
IC50 (read off the curve) (hVEGF-A (8-109) [6]): ~70 nM
binding result (VEGF-B): no binding (tested: 5 µM)
binding result (hVEGF-A F17A/M81A): binds
IC50 (read off the curve) (human VEGF-A 165 [7]): ~30 nM
IC50 (read off the curve) (human VEGF-A 165 [8]): ~30 nM
binding result (VEGF-D): no binding (tested: 5 µM)
